Measured values as given in US20020147999A1.

Experiments:
Assay in all cases: cell-based or functional assay
[1] = molecular target: p-tau (phosphorylated microtubule-associated protein tau), mouse, endogenous in Neuro-2a cells and mouse brain (mouse) (UniProt P10637)
[2] = molecular target: p-NF-H (phosphorylated neurofilament protein of high molecular weight), mouse, endogenous in Neuro-2a cells (mouse) (UniProt P19246)
[3] = molecular target: apoE cleavage enzyme (chymotrypsin-like serine protease; in mouse brain lysate or roughly/partially purified)

p-NF-H (phosphorylated neurofilament protein of high molecular weight), mouse, endogenous in Neuro-2a cells (mouse), sequence (P19246 whole entry): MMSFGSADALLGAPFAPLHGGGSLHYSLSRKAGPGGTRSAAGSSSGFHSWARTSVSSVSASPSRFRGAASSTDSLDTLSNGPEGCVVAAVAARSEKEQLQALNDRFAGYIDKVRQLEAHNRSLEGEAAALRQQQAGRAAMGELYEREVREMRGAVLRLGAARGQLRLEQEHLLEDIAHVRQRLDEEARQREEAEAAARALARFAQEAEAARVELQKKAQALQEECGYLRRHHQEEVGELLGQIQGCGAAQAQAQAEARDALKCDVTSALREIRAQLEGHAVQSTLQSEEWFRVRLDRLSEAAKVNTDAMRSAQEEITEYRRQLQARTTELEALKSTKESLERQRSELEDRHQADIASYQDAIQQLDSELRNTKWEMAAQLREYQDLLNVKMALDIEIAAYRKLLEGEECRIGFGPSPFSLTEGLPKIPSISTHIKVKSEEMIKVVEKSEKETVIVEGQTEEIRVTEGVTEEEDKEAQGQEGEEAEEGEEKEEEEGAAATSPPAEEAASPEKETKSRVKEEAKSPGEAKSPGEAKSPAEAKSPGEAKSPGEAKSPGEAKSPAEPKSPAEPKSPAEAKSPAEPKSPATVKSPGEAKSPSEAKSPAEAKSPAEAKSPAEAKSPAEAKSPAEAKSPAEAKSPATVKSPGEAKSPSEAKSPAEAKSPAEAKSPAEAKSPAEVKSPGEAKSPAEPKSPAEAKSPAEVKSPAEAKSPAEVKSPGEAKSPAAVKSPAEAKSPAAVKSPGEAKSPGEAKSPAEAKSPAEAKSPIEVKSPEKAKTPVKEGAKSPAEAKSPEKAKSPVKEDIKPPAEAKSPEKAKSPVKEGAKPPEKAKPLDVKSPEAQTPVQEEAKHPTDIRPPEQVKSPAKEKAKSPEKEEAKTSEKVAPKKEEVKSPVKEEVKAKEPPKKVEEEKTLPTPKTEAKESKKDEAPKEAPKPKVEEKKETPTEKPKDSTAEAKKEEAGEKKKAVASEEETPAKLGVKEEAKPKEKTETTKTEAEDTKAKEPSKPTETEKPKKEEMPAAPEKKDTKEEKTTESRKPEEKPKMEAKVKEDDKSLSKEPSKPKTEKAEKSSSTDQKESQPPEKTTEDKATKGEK
p-tau (phosphorylated microtubule-associated protein tau), mouse, endogenous in Neuro-2a cells and mouse brain (mouse), sequence (P10637 other isoform, or with tags, fused parts or gaps limits assumed): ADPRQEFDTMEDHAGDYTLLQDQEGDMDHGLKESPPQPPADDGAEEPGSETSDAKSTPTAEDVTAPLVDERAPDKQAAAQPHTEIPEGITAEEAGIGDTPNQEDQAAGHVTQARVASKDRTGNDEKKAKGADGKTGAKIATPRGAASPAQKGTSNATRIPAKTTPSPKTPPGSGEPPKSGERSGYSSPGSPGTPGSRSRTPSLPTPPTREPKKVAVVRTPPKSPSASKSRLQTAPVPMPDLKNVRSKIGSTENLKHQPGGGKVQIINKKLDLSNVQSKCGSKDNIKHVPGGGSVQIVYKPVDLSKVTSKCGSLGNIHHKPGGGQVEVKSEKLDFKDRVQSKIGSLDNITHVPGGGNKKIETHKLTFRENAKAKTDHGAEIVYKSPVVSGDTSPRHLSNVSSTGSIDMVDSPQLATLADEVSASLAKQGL

transfected cells displaying the intracellular filamentous inclusions [1] [%] | transfected cells displaying the intracellular filamentous inclusions [2] [%] | inhibition of apoE cleavage enzyme activity (chromogenic assay, 1 mM Ala-Ala-Pro-Phe-p-nitroanilide; 7 µM apoE4) [3] [%] | Substance
32 | 32 | – | apoE3(Δ272-299), expressed in transfected cells (pFLAG-CMV-3 vector, secretory pathway, N-terminal FLAG) (from UniProt P02649 19-289)
78 | 78 | – | apoE4(Δ272-299), expressed in transfected cells (pFLAG-CMV-3 vector, secretory pathway, N-terminal FLAG) (from UniProt P02649 19-289)
– | – | 89 | purified human apoE4 (full-length) (from UniProt P02649 19-317)
